Experimental data: patent publication US20130183348A1, “Inhibitor of HMGB Protein-Mediated Immune Response Activation, and Screening Method” (JAPAN SCIENCE AND TECHNOLOGY AGENCY, published 2013)

Tests used:
[1] = target: T1, CFP-tagged RIG-I (CFP-RIG-I) (mouse, UniProt Q6Q899 1-926); assay: confocal fluorescence microscopy of HeLa cells cotransfected with CFP-RIG-I and YFP-HMGB1 and stimulated with poly(I:C); the filing's interpretation of co-localisation
T1 construct: Expressed in HeLa cells from the pCAGGS-CFP vector; not shown: CFP tag from the pCAGGS-CFP vector
T1 sequence (looked up): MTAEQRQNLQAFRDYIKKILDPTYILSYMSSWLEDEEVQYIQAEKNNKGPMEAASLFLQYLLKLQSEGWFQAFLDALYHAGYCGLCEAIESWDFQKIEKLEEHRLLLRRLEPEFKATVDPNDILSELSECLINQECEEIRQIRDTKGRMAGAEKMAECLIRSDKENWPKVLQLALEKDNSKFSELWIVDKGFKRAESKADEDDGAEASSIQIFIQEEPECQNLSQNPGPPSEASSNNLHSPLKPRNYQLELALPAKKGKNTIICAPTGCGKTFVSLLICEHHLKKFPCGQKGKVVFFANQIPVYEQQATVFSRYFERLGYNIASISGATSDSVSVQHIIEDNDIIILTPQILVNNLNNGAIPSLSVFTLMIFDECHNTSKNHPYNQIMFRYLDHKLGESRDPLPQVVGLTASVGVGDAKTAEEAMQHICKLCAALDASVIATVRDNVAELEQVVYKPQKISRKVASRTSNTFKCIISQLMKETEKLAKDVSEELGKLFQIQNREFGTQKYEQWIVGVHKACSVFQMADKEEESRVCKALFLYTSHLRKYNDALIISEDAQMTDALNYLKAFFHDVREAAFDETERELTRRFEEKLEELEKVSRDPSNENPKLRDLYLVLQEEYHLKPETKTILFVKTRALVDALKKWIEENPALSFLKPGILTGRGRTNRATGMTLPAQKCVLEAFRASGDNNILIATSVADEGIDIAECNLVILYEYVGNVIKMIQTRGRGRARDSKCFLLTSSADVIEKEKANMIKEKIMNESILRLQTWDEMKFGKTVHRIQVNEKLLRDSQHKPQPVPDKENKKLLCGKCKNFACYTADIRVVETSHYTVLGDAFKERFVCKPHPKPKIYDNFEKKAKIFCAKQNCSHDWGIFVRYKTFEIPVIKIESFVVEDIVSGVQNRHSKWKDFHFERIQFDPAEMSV
Description: Intracellular localization of HMGB1 and RIG-I was investigated. Expression vectors of CFP-tagged RIG-I (CFP-RIG-I) and YFP-tagged HMGB1 (YFP-HMGB1) were introduced, together with RFP-tagged Rab5 (RFP-Rab5) or without RFP-Rab5, into HeLa cells. At 16 hours after the gene transfer, the cells were stimulated with poly(I:C) for 2 hours, and fluorescence microscopic observation was performed using a laser scanning confocal microscope.

[2] = target: T2, HMGB1 (Mus musculus, UniProt P63158 SEQ:1-215); assay: pulldown; biotin-CpG-B(S) 0.2 uM pulled down HMGB1; also completely inhibited B-DNA binding; conditions: tags: GST-tagged, tag removed with thrombin (pGEX4T3)
Description: (§1) In more detail, a final concentration of 0, 0.1, 0.5, 2.5, 12.5, or 62.5 μg/mL of CpG-B(S) as a competitor was added to 2 μg of a recombinant HMGB1 protein and a final concentration of 2.5 μg/mL of biotin-labeled B-DNA, and they were incubated (room temperature, 30 minutes). The biotin-labeled B-DNA was pulled down with streptavidin-bound magnetic beads, and HMGB1 in the coprecipitated protein was detected by Western blotting using an anti-HMGB1 antibody. In addition, a final concentration of 0, 1, 2, 4, 8, 16, or 32 μM of a competitor: CpG-B(S) not labeled with biotin, CpG-M(S), ODN(PS) composed of only a phosphorothioate backbone and not having any base, or ODN(CpG-M) having the same sequence as that of CpG-M(S) and a phosphodiester backbone, was added to 2 μg of the recombinant HMGB1 protein and a final concentration of 0.2 μM of biotin-labeled CpG-B(S). The biotin-labeled CpG-B was pulled down with streptavidin-bound magnetic beads, and HMGB1 in the coprecipitated protein was detected by Western blotting using an anti-HMGB1 antibody.

[3] = target: T2, HMGB1; assay: pulldown; CpG-B ODN competing biotin-B-DNA; recombinant HMGB1 or 2 used, protein of this panel not specified; conditions: tags: GST-tagged, tag removed with thrombin (pGEX4T3)
Description: (§2) In vitro pull-down assay was carried out as follows. At first, a recombinant of HMGB1, 2, or 3 was treated in the presence or absence of a competitor at room temperature for 30 minutes. The supernatant was mixed with a biotin-labeled B-DNA at 4° C. for 30 minutes, then streptavidin-bound magnetic beads (Invitrogen Corporation) were added thereto, and the mixture was incubated in a binding buffer (50 mM Tris-Cl, pH 7.5, 150 mM NaCl, 1 mM EDTA, 1% NP-40, 100 μg/mL leupeptin, 1 mM PMSF, 1 mM Na₃VO₄). Subsequently, the mixture was sufficiently washed with a binding buffer, was separated by SDS-PAGE, and then was immunoblotted using an anti-HMGB1, 2, or 3 antibody.
Binding of HMGB to DNA, RNA and base-free phosphorothioate deoxyribose homopolymer (PS) was investigated. In vitro pull-down assay using recombinant HMGB1 or 2 and biotin-bound B-DNA was performed in the presence of 1, 3, 10, 30 and 100 μg/mL of unlabeled nucleic acid (B-DNA, poly(I:C), poly(U), bovine thymus DNA, or microbial DNA), R837 (1, 3, 10, 30 and 100 μg/mL) (upper and middle panels), base-free natural deoxyribose homopolymer (PD: 0.01, 0.1, 0.3, 1 and 3 μg/mL, lower panel), or base-free phosphorothioate deoxyribose homopolymer (PS: 0.01, 0.1, 0.3, 1 and 3 μg/mL, lower panel). In the lower panel, unlabeled B-DNA or CpG-B ODN having stepwise increasing concentrations (0.1, 0.3, 1 and 3 μg/mL) was also used. […]

[4] = target: T2, HMGB1; assay: competition; competes biotin-CpG-B(S) equally to unlabeled CpG-B(S); higher competitivity than PS; conditions: tags: GST-tagged, tag removed with thrombin (pGEX4T3)
Description: as §1

[5] = target: T2, HMGB1; assay: competition; competes biotin-B-DNA; higher competitivity than PS; conditions: tags: GST-tagged, tag removed with thrombin (pGEX4T3)
Description: as §2
As in Example 13, in vitro pull-down assay using recombinant HMGB1 and biotin-bound B-DNA was performed for 0.1, 0.5, 2.5, 12.5 and 62.5 μg/mL of CpG-B(S), CpG-Rev(S), CpG-M(S) and PS, as competitors.

B1: YFP-tagged HMGB1 (YFP-HMGB1) (other, mouse, UniProt P63158 1-215, looked up)
chain: MGKGDPKKPRGKMSSYAFFVQTCREEHKKKHPDASVNFSEFSKKCSERWKTMSAKEKGKFEDMAKADKARYEREMKTYIPPKGETKKKFKDPNAPKRPPSAFFLFCSEYRPKIKGEHPGLSIGDVAKKLGEMWNNTAADDKQPYEKKAAKLKEKYEKDIAAYRAKGKPDAAKKGVVKAEKSKKKKEEEDDEEDEEDEEEEEEEEDEDEEEDDDDE
notes: Expressed in HeLa cells from the pCAGGS-YFP vector; not shown: YFP tag from the pCAGGS-YFP vector
[1]
  binding result: binds

## TCCATGACGTTCCTGATGCT (ssDNA, PS all linkages) [CpG-B(S)]
[2]
  binding result: binds
[3]
  binding result: binds

## TCCATGAGGTTCCTGATGCT (ssDNA, PS all linkages) [CpG-M(S)]
[4]
  binding result: binds

## TCCATGAGCTTCCTGATGCT (ssDNA, PS all linkages) [CpG-Rev(S)]
[5]
  binding result: binds
